Source: patent US20100048671

Molecular target: T7-tagged tyrosine kinase Etk (UniProt P51813)
Sequence (P51813 whole entry): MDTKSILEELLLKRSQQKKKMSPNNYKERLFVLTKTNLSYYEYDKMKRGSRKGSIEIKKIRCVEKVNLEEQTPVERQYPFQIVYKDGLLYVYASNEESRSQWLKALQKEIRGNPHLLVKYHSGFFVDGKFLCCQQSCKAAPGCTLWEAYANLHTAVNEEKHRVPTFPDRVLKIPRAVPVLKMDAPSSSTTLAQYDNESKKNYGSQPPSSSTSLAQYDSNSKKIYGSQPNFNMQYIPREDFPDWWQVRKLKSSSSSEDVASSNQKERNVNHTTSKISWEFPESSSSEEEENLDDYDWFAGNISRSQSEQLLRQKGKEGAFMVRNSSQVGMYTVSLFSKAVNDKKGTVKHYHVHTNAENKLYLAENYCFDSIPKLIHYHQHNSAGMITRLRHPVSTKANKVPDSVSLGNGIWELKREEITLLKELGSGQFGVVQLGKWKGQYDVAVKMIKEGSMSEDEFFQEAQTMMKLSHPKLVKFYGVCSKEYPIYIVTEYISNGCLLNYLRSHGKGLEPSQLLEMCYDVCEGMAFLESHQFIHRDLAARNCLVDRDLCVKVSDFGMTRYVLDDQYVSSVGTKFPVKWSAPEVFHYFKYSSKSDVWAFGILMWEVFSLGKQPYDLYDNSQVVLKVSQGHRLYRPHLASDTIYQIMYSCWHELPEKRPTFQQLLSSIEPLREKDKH

Sequence of Flag-tagged human 44 kD Pim-1 (Pim-1L) (chain, as listed by the source): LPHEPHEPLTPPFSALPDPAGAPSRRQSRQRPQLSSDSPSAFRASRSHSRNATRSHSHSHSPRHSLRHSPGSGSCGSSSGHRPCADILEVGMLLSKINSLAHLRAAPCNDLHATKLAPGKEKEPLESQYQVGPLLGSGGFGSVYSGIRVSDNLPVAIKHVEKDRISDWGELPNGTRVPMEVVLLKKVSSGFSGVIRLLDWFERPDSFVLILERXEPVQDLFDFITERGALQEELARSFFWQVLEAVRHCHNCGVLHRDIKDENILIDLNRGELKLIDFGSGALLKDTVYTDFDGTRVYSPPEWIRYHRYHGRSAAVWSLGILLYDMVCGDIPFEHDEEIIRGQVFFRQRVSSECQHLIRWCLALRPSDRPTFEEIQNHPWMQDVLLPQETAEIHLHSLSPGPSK
Sequence of Flag-tagged Pim-1LΔP (Pim-1L with the first 15 amino acids deleted) (chain, as listed by the source mutant): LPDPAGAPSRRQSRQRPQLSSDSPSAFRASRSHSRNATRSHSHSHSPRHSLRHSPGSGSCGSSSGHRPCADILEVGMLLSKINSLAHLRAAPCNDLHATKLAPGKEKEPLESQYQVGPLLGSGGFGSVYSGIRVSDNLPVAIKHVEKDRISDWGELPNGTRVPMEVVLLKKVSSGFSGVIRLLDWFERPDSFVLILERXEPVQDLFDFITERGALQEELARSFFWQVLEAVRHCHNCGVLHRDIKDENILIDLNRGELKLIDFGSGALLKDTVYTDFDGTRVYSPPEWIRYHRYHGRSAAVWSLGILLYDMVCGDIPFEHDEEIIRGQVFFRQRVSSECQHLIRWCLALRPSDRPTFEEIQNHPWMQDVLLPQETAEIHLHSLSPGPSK

## Flag-tagged Pim-1LΔP (Pim-1L with the first 15 amino acids deleted)
  in vitro kinase assay of Etk (tyrosine phosphorylation of the substrate Gab1): Deletion of the proline-rich PXXP motifs of Pim-1L (Pim-1LΔP) dramatically diminished its effects on the Etk kinase activity

## Flag-tagged human 44 kD Pim-1 (Pim-1L)
  in vitro kinase assay of Etk (tyrosine phosphorylation of the substrate Gab1): Co-expression of Etk with Pim-1L enhanced the kinase activity of Etk
  tyrosine phosphorylation of Etk (IP anti-Etk, blot anti-phosphotyrosine): unexpected robust increase of tyrosine phosphorylation of Etk
